From article PMC3627194, “Xentry, a new class of cell-penetrating peptide uniquely equipped for delivery of drugs” (Scientific Reports, 2013)
Non-standard residues stand in square brackets, D forms with d. Residues, ends and D or L forms follow the SMILES beside them. No end group written: not given here. *: point of attachment. FITC = O=C1OC2(c3ccc(O)cc3Oc3cc(O)ccc32)c2ccc(NC(=S)*)cc21; Biotin = O=C1N[C@H]2[C@H](CS[C@H]2CCCCC(=O)*)N1

What was measured:
[1] = target: T1, syndecan-4 (Homo sapiens, UniProt P31431); assay: Anti-syndecan 4 antibody blockade of Xentry uptake by HepG2 cells; format: cell-based; conditions: FITC-lclrpvg 10 μM, 3 h
T1 construct: endogenous in cells; host or cells: HepG2 (ATCC)
T1 sequence (P31431 19-198): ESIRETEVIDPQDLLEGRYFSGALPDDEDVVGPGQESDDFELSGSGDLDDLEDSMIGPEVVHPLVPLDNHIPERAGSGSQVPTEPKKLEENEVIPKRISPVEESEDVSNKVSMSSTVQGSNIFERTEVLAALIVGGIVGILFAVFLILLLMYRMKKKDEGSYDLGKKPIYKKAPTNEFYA
Experimental: Cell nuclei were stained blue with DAPI. […] Scale bar, 50 μm.
The media was replaced with 500 μl of MEM media containing 10% FCS and either 1 μg/ml of a goat anti-human syndecan-4 antibody (R&D Systems, Minneapolis, MN), or 1 μg/ml of the control goat anti-human TNF-related apoptosis-inducing ligand (TRAIL) antibody (Santa Cruz Biotechnology Inc., Santa Cruz, CA). The cells were then incubated at 37°C and 5% CO2 for 30 min. FITC-labelled Xentry (FITC-lclrpvg) was added at a final concentration of 10 μM and the cells incubated for 3 h at 37°C in a 5% CO2 atmosphere. The cells were washed thrice with PBS, fixed with 4% formaldehyde for 15 min, washed with PBS, and DAPI added for visualization of cell nuclei. They were examined using a Nikon E600 fluorescence microscope, and photographed.

[2] = format: in vitro ADME; conditions: FITC-labelled peptide incubated in serum 0, 1 and 4 h, then incubated with HepG2 cells; read-out cell uptake by fluorescence microscopy
Experimental: (§1) Supplementary Figure 3. The D-isomeric form of Xentry aa 16-22 is cell permeable, and is stable in serum for at least 4 h.
(§2) (a) FITC-labelled D-isomeric Xentry was incubated with HepG2 cells at concentrations of […] for 3 h.
(§3) Uptake was recorded by fluorescence microscopy. Cell nuclei were stained with DAPI. (b) FITC-labelled L-isomeric and D-isomeric forms of Xentry were incubated in serum for 0, 1, and 4 h before incubation with HepG2 cells. Cell nuclei were stained with DAPI. Scale bar, 50 μm. […]

[3] = system: HepG2 cells; assay: Assay to test for cell permeability of peptides; format: cell-based; conditions: 3 h
Experimental: Figure 1 Cell-permeability of X-protein peptides. (a) X-protein peptides aa 1–20 and 16–35 are cell-permeable. Four FITC-labelled peptides encompassing aa 1–20, 16–35, 21–40 and 34–53 from the N-terminal region of the X-protein were incubated at 10 μM with HepG2 cells and their uptake by the cells recorded by confocal microscopy. Cell nuclei were stained blue with DAPI. (b) The sequence of the first 35 N-terminal residues of the HBV X-protein are shown with the sequence of Xentry (LCLRPVG; residues 16–22) highlighted in red. Short FITC-labelled peptides (10 μM) aa 16–26, 16–24 and 16–22 (Xentry) derived from peptide aa 16–35 also permeate HepG2 cells (upper panel). […] Cell nuclei were stained blue with DAPI. […] Cell nuclei were stained blue with DAPI. Scale bar, 50 μm.
HepG2 cells (ATCC, Manassas, VA) were seeded into 8-well chamber slides at 1 × 10^5 cells per well in MEM media (Gibco, Life Technologies New Zealand Ltd) containing 10% FCS and PSG. […] L-isomeric peptides were diluted in 500 μl of MEM media without FCS, whereas D-isomeric peptides were diluted in the same media containing FCS, and each added to cells at a final concentration of 10 μM, or as indicated. The cells were incubated for 3 h at 37°C in a 5% CO2 atmosphere, washed with PBS, fixed with 4% formaldehyde for 30 min, and washed thrice with PBS. A drop of Prolong Gold anti-fade reagent with DAPI (Invitrogen, Life Technologies New Zealand Ltd) was added, and the cells mounted and examined with a Nikon E600 fluorescence microscope or a Leica TCS-SP2 confocal microscope.
as §1, §2, §3

[4] = system: WM-266-4 melanoma cells; assay: Apoptosis of melanoma cells by Xentry-conjugated anti-B-raf antibody (annexin-V fluos); format: cell-based; conditions: annexin-V fluos staining
Experimental: HepG2 cells were seeded at 1 × 10^5 cells per well into 8-well chamber slides, and cultured overnight at 37°C in an atmosphere of 5% CO2. They were washed thrice with serum-free MEM media and resuspended in 500 μl of serum-free MEM. A 30 μl solution containing conjugation buffer, 0.85 μg of the Xentry peptide biotin-[sequence], 9 μg of a FITC-labelled rabbit IgG (Sigma, MO) or 1 μg of a rabbit polyclonal anti-B-raf antibody (Sigma, MO), and 4.8 μg of transglutaminase was incubated for 1 h at 37°C. The resulting conjugates were added to the cells, which were incubated for 3 h at 37°C and washed thrice with PBS. […] Cells incubated with the Xentry-anti-B-raf antibody conjugate were stained with annexin-V Fluos (Roche Diagnostics NZ Ltd., Auckland) to detect cell apoptosis. The cells were examined using a Nikon E600 fluorescence microscope, and photographed.

[5] = system: WM-266-4 melanoma cells; assay: Xentry-KALA fusion peptide delivery of anti-B-raf siRNA, apoptosis (annexin-V fluos); format: cell-based; conditions: 10 μM Xentry-KALA fusion peptide with 30 nM Tex615-labelled siRNA against B-raf, 72 h
Experimental: Figure 3 Xentry-mediated delivery of antibody and siRNA cargoes into cells. (a) Uptake of Xentry-conjugated and unconjugated FITC-labelled rabbit IgG by HepG2 cells. Cell nuclei were stained blue with DAPI. (b) Representative cell showing staining of tubulin by a Cy3-labelled anti-β-tubulin antibody delivered to HepG2 cells by Xentry. HepG2 cells were incubated with the Xentry- anti-β-tubulin antibody conjugate for 1 h, washed, then incubated and photographed 24 h later. For comparison, a representative fixed and permeabilized cell is shown which has been stained by the free anti-β-tubulin antibody. […] (c) The abilities of a Xentry-conjugated and unconjugated anti-B-raf antibody to induce the apoptosis of WM-266-4 melanoma cells, as evidenced by staining of cells with annexin-V fluos (green). […] For comparison, the anti-B-raf siRNA was transfected into cells using the PolyMag agent. The siRNA was omitted from controls. Scale bar, 50 μm.
A 600 μl solution was prepared containing 30 nM of a Tex615-labelled siRNA against B-raf (sense 5′-XAGAAUUGGAUCUGGAUCAUTTY-3′; antisense 5′-[…]-3′; X = C12 amino, Y = Tex615) (Integrated DNA Technologies, Iowa) and 10 μM of a Xentry-KALA fusion peptide (biotin-[…]; Peptide 2.0 Inc., Chantilly, VA). […] Cells were stained with annexin-V Fluos to detect apoptotic cells by fluorescence microscopy, and photographed. […]

[6] = Biodistribution of a Xentry-β-galactosidase conjugate in mice (X-gal staining); format: in vivo, Balb/c mice
Experimental: One milligram of recombinant β-galactosidase (Medicago AB, Uppsala, Sweden) was cross-linked to 0.2 mg of a FITC-labelled Xentry peptide fused to a polyglutamine stretch (FITC-lclrpvggrrQQQQQQrr; Peptide 2.0 Inc., Chantilly, VA) with 4.8 μg of transglutaminase in 40 μl of transglutaminase buffer for 1 h at 37°C. […] Control mice (one mouse per time point) were intravenously injected with 1 mg of unconjugated β-galactosidase. The heart, lungs, liver, spleen, pancreas, kidneys, stomach, small intestine, colon, muscle and brain of each mouse were collected, and frozen at −80°C. Frozen organ sections were fixed in 0.25% glutaraldehyde for 15 min, washed thrice with PBS and stained with 1 mg/ml of X-gal (Sigma, MO) for 3 h at 37°C. The sections were washed thrice with PBS, examined by light microscopy and photographed.

[7] = system: live HepG2 cells; conditions: live unfixed cells, 3 h 37°C, β-galactosidase substrate C12FDG 10 min, fluorescence microscopy
Experimental: (a) Visualization of the internalization of an unlabelled Xentry-β-galactosidase conjugate, and unconjugated β-galactosidase, after a 10 min incubation with live cells preloaded with the green fluorescent substrate C12FDG.
HepG2 cells were seeded at 1 × 10^5 cells per well into 8-well chamber slides, and cultured overnight at 37°C in a 5% CO2 atmosphere. They were washed thrice with serum-free MEM media, and 500 μl of serum-free MEM added to the wells. A Xentry peptide (biotin-[sequence]; Peptide 2.0 Inc., Chantilly, VA) where LCLRP was fused to a polyglutamine stretch was conjugated to recombinant β-galactosidase. A 30 μl solution containing conjugation buffer (5 mM CaCl2, 1 mM DTT, 50 mM Tris-HCl), 0.84 μg of Xentry peptide, 16.5 μg of β-galactosidase (5 U; Sigma, MO), and 4.8 μg of transglutaminase (Ajinomoto, Itasca, IL) was incubated for 1 h at 37°C. The resulting conjugate was added to the cells, which were incubated for 3 h at 37°C. The cells were washed thrice with PBS, and the β-galactosidase substrate 5-dodecanoylaminofluorescein di-β-D-galactopyranoside (Imagene C12FDG; Invitrogen Life Technologies New Zealand Ltd) added, followed by incubation for 10 min at 37°C. The cells were washed, and examined using a Nikon E600 fluorescence microscope and photographed.

## CC(C)C[C@@H](NC(=O)[C@@H](CS)NC(=O)[C@@H](CC(C)C)NC(=S)Nc1ccc2c(c1)C(=O)OC21c2ccc(O)cc2Oc2cc(O)ccc21)C(=O)N[C@H](CCCNC(=N)N)C(=O)N1CCC[C@@H]1C(=O)N[C@@H](C(=O)NCC(=O)O)C(C)C [D-isomeric form] ({FITC}-[dL][dC][dL][dR][dP][dV]G-OH)
[1]; 1 μg/ml control antibody against TRAIL
  Uptake by HepG2 cells after control anti-TRAIL antibody: no effect
[1]; 1 μg/ml goat anti-human syndecan-4 antibody 30 min pre-incubation, MEM 10% FCS
  Uptake by HepG2 cells after anti-syndecan-4 antibody: blocked
[2]
  Time stable in serum: at least 4 h
[3]; FITC-labelled D-isomeric Xentry 10, 20, 50 and 100 µM
  Uptake into HepG2 cells at increasing concentrations: increased uptake
[3]; FITC-labelled D-isomeric Xentry, media containing FCS, fluorescence microscopy
  Cell permeability (HepG2 cells): cell-permeable

## Biotin-LCLRPVGGGRRRQQQQQQRRR [Xentry-anti-B-raf antibody conjugate, rabbit polyclonal anti-B-raf antibody conjugated to Xentry polyglutamine peptide]
[4]
  Apoptosis of WM-266-4 melanoma cells: undergo apoptosis

## Biotin-LCLRPVGGGWEAKLAKALAKALAKHLAKALAKALKACEA (cysteine pairing not given here) [Xentry-KALA fusion peptide, tested as complex with anti-B-raf siRNA]
[5]
  Apoptosis of WM-266-4 melanoma cells: causing cell apoptosis

## FITC-lclrpvggrrQQQQQQrr [Xentry-β-galactosidase conjugate, recombinant β-galactosidase cross-linked to FITC-labelled D-form Xentry polyglutamine peptide (injected into mice)]
[6]; 1 mg i.v., 1 h, intensity of staining diminished
  Retention in stained organs at 1 h, except for the brain: retained the bioactive conjugate
[6]; 1 mg i.v., 6 h
  β-galactosidase activity in organs at 6 h: only the spleen and small intestine retained some β-galactosidase activity
[6]; 1 mg i.v., 24 h, data not shown
  β-galactosidase activity in organs by 24 h: completely lost
[6]; 1 mg i.v., X-gal stained sections
  Distribution within organs: concentrated in the enterocytes of the small intestine, epithelium of the stomach, and in the marginal zone or marginal sinus of the spleen
[6]; 1 mg i.v., data not shown
  Staining of pancreas, colon and muscle at 15 min: poorly stained
[6]; 1 mg i.v., lungs, liver, spleen, kidneys, stomach, small intestine, colon, muscle, brain listed as stained
  X-gal staining of organs at 15 min: most of the organs stained blue

## unconjugated β-galactosidase: recombinant β-galactosidase without Xentry, control [reference compound]
[7]
  Uptake by live HepG2 cells: not
[6]; 1 mg unconjugated β-galactosidase i.v., one mouse per time point, data not shown
  X-gal staining of organs: did not stain
